From PMC10873621

Molecular target: RNF20 (UniProt Q5VTR2)
Test: co-IP with anti-Myc, anti-Flag blot
Conditions: reference: Flag-LSD1-WT; sites T810,S817,T841,S849,S851

binding against the reference: weaker
Substance: LSD1 (from UniProt O60341) Flag-LSD1-5A
